Measurements: paper PMC7445770

Biological target: RNA polymerase (RNAP), core enzyme without sigma factor (E. coli (endogenous in the cell-free extract))

sigma factor 28 (from UniProt P0AEM6 1-239) (natural protein)
Kσ28: dissociation constant obtained by fitting a nonlinear ODE model to GFP/mRNA time-series responses of the pTar-tetO combinatorial promoter in E. coli TX-TL cell-free extract (29°C): 0.0053 nM

sigma factor 70 (from UniProt P00579 1-613) (natural protein)
Kσ70: dissociation constant obtained by fitting a nonlinear ODE model to GFP/mRNA time-series responses of the pTar-tetO combinatorial promoter in E. coli TX-TL cell-free extract (29°C): 0.0018 pM
